Experimental data as given in patent US6521748B2, “Polynucleotide encoding a mutant Rhodotorula glutinis tyrosine ammonia lyase polypeptide” (E. I. du Pont de Nemours and Company, priority 1999, dated 2003).
Residue numbers refer to the chain shown, from its start.

B1: EP18Km-6: mutant R. glutinis PAL enzyme having enhanced TAL activity, Ile540Thr, SEQ ID NO:10 (protein)
chain: MAPSLDSISHSFANGVASAKQAVNGASTNLAVAGSHLPTTQVTQVDIVEKMLAAPTDSTLELDGYSLNLGDVVSAARKGRPVRVKDSDEIRSKIDKSVEFLRSQLSMSVYGVTTGFGGSADTRTEDAISLQKALLEHQLCGVLPSSFDSFRLGRGLENSLPLEVVRGAMTIRVNSLTRGHSAVRLVVLEALTNFLNHGITPIVPLRGTISASGDLSPLSYIAAAISGHPDSKVHVVHEGKEKILYAREAMALFNLEPVVLGPKEGLGLVNGTAVSASMATLALHDAHMLSLLSQSLTAMTVEAMVGHAGSFHPFLHDVTRPHPTQIEVAGNIRKLLEGSRFAVHHEEEVKVKDDEGILRQDRYPLRTSPQWLGPLVSDLIHAHAVLTIEAGQSTTDNPLIDVENKTSHHGGNFQAAAVANTMEKTRLGLAQIGKLNFTQLTEMLNAGMNRGLPSCLAAEDPSLSYHCKGLDIAAAAYTSELGHLANPVTTHVQPAEMANQAVNSLALISARRTTESNDVLSLLLATHLYCVLQAIDLRATEFEFKKQFGPAIVSLIDQHFGSAMTGSNLRDELVEKVNKTLAKRLEQTNSYDLVPRWHDAFSFAAGTVVEVLSSTSLSLAAVNAWKVAAAESAISLTRQVRETFWSAASTSSPALSYLSPRTQILYAFVREELGVKARRGDVFLGKQEVTIGSNVSKIYEAIKSGRINNVLLKMLA
B2: Rhodosporidium: PAL/TAL enzyme of the yeast Rhodosporidium, literature value (protein)
chain: B1 chain with T540I

Legend:
[1] = Whole cell TAL/PAL activity ratio (follow-up assay after high throughput screen); assay type: cell-based, E. coli
Protocol: The following assay was performed to confirm that fully active mutant PAL enzyme was produced in BL21(DE3) E. coli cells. E. coli cells were grown in LB medium overnight. One mL of cell culture was pelleted and resuspended in 1 mL of 50 mM Tris-HCl buffer (pH 8.5) containing 0.5 mM tyrosine (for TAL activity measurement) or phenylalanine (for PAL activity measurement). The reaction mixture was incubated on the shaker at 37 C. for 1 hr. The reaction mixture was filtrated using 0.2 μm pore size filter (Millipore, Bedford, Mass.), and injected into HPLC (Hewlett-Packard Company, Palo Alto, Calif.). TAL or PAL activity was determined by measuring the concentration of the resulting PHCA or cinnamate. […]
5,000 mutant colonies were picked from agarose plates and screened by high throughput assay (Example 20). The initial hits were further investigated by a follow-up assay to confirm screening results. The TAL and PAL activities were measured using the whole cell assay, described in Example 17, and then ratio of TAL/PAL activities was calculated. The following table summarizes results of the follow-up assay for four mutants with altered TAL/PAL ratios:
A total of 5,000 mutant colonies from these three libraries were screened by high throughput assay (Example 20). Initial hits were further investigated by a follow-up HPLC assay to confirm the screening results as described in Example 21. One mutant with improved TAL/PAL ratio was found (Table 19).

[2] = Enzyme kinetics of purified wild type and mutant PAL, TAL activity (spectrophotometric); assay type: biochemical; conditions: tyrosine as substrate
Protocol: (§1) The PAL or TAL activity of the purified enzymes were measured using a spectrophotometer according to Abell et al., “Phenylalanine Ammonia-lyase from Yeast Rhodotorula glutinis,” Methods Enzymol. 142:242-248 (1987). The spectrophotometric assay for PAL determination was initiated by the addition of the enzyme to a solution containing 1.0 mM L-phenylalanine and 50 mM Tris-HCl (pH 8.5). The reaction was then followed by monitoring the absorbance of the product, cinnamic acid, at 290 nm using a molar extinction coefficient of 9000 cm^−1. The assay was run over a 5 min period using an amount of enzyme that produced absorbance changes in the range of 0.0075 to 0.018/min. One unit of activity indicated deamination of 1.0 μmol of phenylalanine to cinnamic acid per minute. The TAL activity was similarly measured using tyrosine in the reaction solution. The absorbance of the para-hydroxycinnamic acid produced was followed at 315 nm and the activity was determined using an extinction coefficient of 10,000 cm^−1 for PHCA. One unit of activity indicated deamination of 1.0 μmol of tyrosine to para-hydroxycinnamic acid per minute.
(§2) A detailed enzyme kinetics analysis using the yeast wild type and the purified mutant PAL enzyme and tyrosine or phenylalanine as substrate, was carried out. The PAL and TAL activities were measured spectrophotometrically as described in the General Methods and the KM and Vmax were determined from its Lineweaver-Burke plot. The kcat was calculated from Vmax assuming the presence of four active sites in the active tetramer.

[3] = Whole cell TAL activity assay (HPLC) in BL21(DE3) E. coli cells; assay type: cell-based; conditions: for TAL Activity (%): 0.5 mM tyrosine, 37 C, 1 hr
Protocol: The following assay was performed to confirm that fully active mutant PAL enzyme was produced in BL21(DE3) E. coli cells. E. coli cells were grown in LB medium overnight. One mL of cell culture was pelleted and resuspended in 1 mL of 50 mM Tris-HCl buffer (pH 8.5) containing 0.5 mM tyrosine (for TAL activity measurement) or phenylalanine (for PAL activity measurement). The reaction mixture was incubated on the shaker at 37 C. for 1 hr. The reaction mixture was filtrated using 0.2 μm pore size filter (Millipore, Bedford, Mass.), and injected into HPLC (Hewlett-Packard Company, Palo Alto, Calif.). TAL or PAL activity was determined by measuring the concentration of the resulting PHCA or cinnamate.
The truncation mutants were analyzed by measuring TAL activity using the whole cell assay described in Example 17. Table 15 summarizes the results:
The C-terminal truncation mutant was analyzed by measuring TAL and PAL activities using the whole cell assay described in Example 17, and pET17b-Km-6 was used as positive control.

[4] = Enzyme kinetics of purified wild type and mutant PAL, PAL activity (spectrophotometric); assay type: biochemical; conditions: phenylalanine as substrate
Protocol: as §1, §2

[5] = Whole cell PAL/TAL activity of colonies from the selection plates; assay type: cell-based, E. coli; conditions: whole cell assay
Protocol: An HPLC assay was developed for measuring the levels of cinnamic acid and PHCA formed by the whole cells. In a typical assay, following centrifugation of a culture grown in the medium of choice, 20-1000 μL of the supernatant was acidified with phosphoric acid, filtered through a 0.2 or 0.45 micron filter and analyzed by the HPLC to determine the concentration of PHCA and cinnamic acid in the growth medium. Alternatively, following centrifugation, the cells were resuspended in 100 mM Tris-HCl (pH 8.5) containing 1.0 mM tyrosine or 1.0 mM phenylalanine and incubated at room temperature for 1.0-16 h. A filtered aliquot (20-1000 μL) of this suspension was then analyzed.
The colonies that had appeared on the selection plates were analyzed for their PAL/TAL activity using the whole cell assay described in the general methods. […] Genetic analysis for the EP18Km-6 mutant was carried out. The plasmid DNA was purified from the mutant cells, and then re-transformed into E. coli. […] To better characterize the mutants, the following analyses were carried out.

[6] = Ratio of TAL to PAL catalytic efficiency of purified enzymes; assay type: biochemical
Protocol: as §2
The catalytic efficiency, defined as kcat/KM, was calculated for both the wild type and mutant enzyme. The ratio of the TAL catalytic efficiency versus the PAL of the wild type enzyme was 0.5 while that of the mutant enzymes had increased to 1.7 (see Table 11).

[7] = Hanson and Havir 1981; cited from earlier work
[8] = from Vmax assuming four active sites

Molecule | TAL/PAL ratio ([1]; regional mutants amino acid No. 120-280, Table 17) | TAL/PAL ratio ([1]; summary table of mutants) | Km ([2]; Lineweaver-Burke plot) [µM] | kcat [2, 8] [s⁻¹] | TAL/PAL activity of enzyme expressed from pET17b ([3]; BL21(DE3) E. coli cells) | TAL Activity (%) ([3]; C-terminal truncation mutant in pET17b) | TAL Activity (%) ([3]; N-terminus truncation mutants in pET17b) | Km ([4]; Lineweaver-Burke plot) [µM] | kcat [4, 8] [s⁻¹] | TAL activity ratio versus wild type cell [5] | TAL/PAL ratio (catalytic efficiency) [6] | ratio of TAL catalytic activity to PAL catalytic activity [7]
B1 | 1.7 | 1.7 | 50 | 0.63 | fully active | 100 | 100 | 333 | 2.45 | enhanced TAL activity ratio | 1.7 | –
B2 | – | – | – | – | – | – | – | – | – | – | – | approximately 0.58
